Data from patent US10087225B2, “Formulation of MK2 inhibitor peptides” (MOERAE MATRIX, INC., priority 2015, dated 2018).

Columns and labels:
Test in all cases: Kinase Profiling Assay
Type in all cases: biochemical
Conditions in all cases: for % activity: 100 μM
PKCζ(h) = target: T1, PKCζ(h) (Homo sapiens, UniProt Q05513)
T1 sequence (Q05513 1-592): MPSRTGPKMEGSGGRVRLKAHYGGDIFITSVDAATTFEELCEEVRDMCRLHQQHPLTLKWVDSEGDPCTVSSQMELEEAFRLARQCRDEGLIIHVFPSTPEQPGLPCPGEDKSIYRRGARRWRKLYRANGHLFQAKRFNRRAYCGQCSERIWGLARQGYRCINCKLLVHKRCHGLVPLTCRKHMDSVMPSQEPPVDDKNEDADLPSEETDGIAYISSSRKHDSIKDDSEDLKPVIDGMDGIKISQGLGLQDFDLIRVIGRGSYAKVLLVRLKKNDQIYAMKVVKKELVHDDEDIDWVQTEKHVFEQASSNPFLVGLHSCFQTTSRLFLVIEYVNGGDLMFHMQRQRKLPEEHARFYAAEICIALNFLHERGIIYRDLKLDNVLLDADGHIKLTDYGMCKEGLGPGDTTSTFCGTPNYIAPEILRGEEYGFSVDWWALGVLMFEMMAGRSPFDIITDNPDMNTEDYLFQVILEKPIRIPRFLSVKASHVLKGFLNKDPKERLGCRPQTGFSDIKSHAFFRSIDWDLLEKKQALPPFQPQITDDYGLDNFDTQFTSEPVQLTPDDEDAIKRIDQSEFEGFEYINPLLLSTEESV

ALK(h) = ALK(h) (Homo sapiens, UniProt Q9UM73)
Sequence of ALK(h) (Q9UM73 19-1620): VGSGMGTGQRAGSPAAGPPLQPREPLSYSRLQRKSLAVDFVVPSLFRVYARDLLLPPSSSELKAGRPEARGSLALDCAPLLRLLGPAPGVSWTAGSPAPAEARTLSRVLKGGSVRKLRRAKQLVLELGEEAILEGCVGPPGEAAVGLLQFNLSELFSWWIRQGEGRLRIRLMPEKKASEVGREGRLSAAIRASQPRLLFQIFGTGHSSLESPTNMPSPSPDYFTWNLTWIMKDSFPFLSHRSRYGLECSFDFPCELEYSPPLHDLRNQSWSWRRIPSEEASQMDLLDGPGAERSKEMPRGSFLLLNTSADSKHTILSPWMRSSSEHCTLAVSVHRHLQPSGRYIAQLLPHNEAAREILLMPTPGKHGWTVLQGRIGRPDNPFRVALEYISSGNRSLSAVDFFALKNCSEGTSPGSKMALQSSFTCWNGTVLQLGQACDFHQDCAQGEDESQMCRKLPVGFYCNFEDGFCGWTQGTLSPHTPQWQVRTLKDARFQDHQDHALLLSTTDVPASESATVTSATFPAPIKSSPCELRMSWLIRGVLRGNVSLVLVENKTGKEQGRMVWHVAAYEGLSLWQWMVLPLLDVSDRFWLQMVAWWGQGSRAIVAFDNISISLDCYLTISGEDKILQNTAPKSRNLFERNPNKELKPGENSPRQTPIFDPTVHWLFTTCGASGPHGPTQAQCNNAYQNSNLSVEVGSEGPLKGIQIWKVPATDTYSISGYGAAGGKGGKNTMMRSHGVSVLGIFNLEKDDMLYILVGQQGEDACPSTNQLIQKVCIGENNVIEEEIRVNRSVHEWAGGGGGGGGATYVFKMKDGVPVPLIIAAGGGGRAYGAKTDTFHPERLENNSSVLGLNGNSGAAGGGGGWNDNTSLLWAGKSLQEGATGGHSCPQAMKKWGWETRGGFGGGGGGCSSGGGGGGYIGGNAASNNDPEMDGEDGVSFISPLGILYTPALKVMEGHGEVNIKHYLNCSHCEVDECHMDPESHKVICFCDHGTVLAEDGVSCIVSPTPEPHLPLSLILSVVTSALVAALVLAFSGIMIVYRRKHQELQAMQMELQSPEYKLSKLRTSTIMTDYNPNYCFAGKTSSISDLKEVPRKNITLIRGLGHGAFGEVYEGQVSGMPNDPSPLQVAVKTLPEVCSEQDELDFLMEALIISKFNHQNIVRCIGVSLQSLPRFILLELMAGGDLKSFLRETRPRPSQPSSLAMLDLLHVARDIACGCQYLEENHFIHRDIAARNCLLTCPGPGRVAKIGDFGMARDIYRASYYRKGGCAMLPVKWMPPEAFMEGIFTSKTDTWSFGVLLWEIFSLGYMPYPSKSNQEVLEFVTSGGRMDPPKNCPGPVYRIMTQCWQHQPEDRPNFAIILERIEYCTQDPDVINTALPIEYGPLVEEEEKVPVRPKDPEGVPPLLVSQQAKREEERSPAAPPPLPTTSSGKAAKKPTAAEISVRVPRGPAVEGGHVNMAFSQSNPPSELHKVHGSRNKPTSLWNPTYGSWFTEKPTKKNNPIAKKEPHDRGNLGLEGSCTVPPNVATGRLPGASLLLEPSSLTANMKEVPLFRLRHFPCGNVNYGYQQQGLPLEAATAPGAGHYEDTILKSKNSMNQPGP

SGK3(h) = target: T2, SGK3(h) (Homo sapiens, UniProt Q96BR1)
T2 sequence (Q96BR1 1-496): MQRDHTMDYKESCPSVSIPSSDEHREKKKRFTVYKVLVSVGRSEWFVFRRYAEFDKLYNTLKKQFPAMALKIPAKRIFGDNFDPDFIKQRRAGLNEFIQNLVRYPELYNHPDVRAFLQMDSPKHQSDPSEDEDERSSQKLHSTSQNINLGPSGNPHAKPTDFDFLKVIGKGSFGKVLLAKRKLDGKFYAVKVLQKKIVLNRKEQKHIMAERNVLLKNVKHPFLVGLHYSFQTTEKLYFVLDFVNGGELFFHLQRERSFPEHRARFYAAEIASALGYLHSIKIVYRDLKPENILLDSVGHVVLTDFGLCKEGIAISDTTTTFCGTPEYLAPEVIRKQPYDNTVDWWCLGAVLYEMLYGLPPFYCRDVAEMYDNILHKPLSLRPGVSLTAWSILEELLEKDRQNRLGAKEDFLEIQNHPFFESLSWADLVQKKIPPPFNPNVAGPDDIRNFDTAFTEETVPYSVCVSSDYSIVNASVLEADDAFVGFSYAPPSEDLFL

PRK2(h) = PRK2(h) (Homo sapiens, UniProt Q16513)
Sequence of PRK2(h) (Q16513 whole entry): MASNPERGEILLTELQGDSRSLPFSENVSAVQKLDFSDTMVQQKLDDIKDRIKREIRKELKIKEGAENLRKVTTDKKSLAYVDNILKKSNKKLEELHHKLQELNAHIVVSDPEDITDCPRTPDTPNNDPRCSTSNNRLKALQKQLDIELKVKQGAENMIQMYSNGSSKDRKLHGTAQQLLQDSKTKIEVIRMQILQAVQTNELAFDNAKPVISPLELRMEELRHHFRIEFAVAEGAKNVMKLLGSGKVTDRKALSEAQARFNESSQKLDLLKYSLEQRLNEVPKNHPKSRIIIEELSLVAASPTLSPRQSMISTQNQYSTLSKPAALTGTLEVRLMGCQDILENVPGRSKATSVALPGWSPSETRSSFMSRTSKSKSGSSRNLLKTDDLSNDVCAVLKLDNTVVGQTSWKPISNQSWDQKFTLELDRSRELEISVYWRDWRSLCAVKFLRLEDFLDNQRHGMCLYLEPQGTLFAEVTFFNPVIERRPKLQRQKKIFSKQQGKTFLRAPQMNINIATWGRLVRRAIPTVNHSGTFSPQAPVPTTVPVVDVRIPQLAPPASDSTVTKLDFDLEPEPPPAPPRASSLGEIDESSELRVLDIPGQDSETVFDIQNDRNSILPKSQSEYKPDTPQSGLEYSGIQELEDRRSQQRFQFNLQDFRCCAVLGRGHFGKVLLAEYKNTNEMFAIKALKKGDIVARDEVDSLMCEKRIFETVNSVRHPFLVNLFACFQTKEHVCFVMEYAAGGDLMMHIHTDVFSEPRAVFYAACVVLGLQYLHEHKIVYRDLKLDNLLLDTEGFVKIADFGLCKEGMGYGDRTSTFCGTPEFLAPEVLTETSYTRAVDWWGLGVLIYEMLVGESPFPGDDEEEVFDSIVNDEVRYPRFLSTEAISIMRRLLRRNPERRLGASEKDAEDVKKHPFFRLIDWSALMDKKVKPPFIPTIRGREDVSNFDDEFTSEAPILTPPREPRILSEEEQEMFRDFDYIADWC

BRK(h) = BRK(h) (Homo sapiens, UniProt Q13882)
Sequence of BRK(h) (Q13882 whole entry): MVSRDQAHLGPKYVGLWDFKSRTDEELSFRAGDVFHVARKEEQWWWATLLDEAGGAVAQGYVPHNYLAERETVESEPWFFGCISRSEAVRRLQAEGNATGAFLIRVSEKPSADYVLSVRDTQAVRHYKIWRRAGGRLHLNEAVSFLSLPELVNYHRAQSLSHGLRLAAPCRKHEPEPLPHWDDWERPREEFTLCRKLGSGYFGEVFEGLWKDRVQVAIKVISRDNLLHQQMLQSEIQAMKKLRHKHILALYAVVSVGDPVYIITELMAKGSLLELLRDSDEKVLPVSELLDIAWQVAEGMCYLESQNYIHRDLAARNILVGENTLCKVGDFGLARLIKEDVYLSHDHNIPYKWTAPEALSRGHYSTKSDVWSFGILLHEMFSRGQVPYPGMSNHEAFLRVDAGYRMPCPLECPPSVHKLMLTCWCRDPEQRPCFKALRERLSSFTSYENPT

EphB1(h) = target: T3, EphB1(h) (Homo sapiens, UniProt P54762)
T3 sequence (P54762 18-984): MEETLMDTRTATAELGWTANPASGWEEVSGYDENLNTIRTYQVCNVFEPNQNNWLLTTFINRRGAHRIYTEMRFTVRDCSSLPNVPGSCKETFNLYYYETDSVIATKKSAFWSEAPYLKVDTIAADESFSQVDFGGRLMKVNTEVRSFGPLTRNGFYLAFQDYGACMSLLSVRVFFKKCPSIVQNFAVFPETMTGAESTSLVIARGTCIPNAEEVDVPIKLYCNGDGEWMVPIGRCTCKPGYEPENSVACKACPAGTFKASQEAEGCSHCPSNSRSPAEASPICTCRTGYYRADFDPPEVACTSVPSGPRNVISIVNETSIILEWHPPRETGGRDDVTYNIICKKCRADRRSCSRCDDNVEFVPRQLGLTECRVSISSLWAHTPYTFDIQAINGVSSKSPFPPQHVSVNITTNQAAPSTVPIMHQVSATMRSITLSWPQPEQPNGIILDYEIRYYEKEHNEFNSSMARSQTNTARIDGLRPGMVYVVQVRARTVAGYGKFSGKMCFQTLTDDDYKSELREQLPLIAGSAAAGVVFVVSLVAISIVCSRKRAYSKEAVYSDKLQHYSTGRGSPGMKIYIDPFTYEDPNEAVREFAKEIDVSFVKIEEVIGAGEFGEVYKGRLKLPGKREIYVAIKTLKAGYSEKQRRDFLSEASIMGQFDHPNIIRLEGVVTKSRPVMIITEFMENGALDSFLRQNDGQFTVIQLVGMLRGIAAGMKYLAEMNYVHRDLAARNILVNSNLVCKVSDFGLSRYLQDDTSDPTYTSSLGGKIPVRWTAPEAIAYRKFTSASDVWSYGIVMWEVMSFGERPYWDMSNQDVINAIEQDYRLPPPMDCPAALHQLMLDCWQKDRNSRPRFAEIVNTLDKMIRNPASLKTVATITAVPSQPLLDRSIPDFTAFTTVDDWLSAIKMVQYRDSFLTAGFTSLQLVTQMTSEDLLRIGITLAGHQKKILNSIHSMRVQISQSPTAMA

PKG1β(h) = target: T4, PKG1β(h) (Homo sapiens, UniProt Q13976)
T4 sequence (Q13976 1-686 isoform Q13976-2): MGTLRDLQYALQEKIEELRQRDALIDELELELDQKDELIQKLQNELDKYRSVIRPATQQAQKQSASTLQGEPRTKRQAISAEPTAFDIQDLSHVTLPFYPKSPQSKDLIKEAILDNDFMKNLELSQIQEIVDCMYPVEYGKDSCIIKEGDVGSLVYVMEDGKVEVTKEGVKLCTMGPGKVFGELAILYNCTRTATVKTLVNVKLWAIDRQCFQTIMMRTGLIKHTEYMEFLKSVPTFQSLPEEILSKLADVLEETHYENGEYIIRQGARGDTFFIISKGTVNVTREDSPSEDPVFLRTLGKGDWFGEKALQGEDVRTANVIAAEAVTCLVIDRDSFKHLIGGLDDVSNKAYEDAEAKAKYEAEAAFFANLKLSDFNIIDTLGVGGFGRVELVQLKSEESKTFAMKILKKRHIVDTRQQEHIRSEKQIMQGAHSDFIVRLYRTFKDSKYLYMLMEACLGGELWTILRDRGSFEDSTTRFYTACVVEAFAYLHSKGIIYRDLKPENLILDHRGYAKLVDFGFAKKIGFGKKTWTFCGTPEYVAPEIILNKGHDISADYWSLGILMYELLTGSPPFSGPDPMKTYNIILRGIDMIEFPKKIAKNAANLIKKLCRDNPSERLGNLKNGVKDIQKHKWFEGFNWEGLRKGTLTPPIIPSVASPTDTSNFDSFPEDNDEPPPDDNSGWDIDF

Row | Substance | activity at 100 µM (PKCζ(h)) [%] | activity at 100 µM (ALK(h)) [%] | activity at 100 µM (SGK3(h)) [%] | activity at 100 µM (PRK2(h)) [%] | activity at 100 µM (BRK(h)) [%] | activity at 100 µM (EphB1(h)) [%] | activity at 100 µM (PKG1β(h)) [%] | % activity (PKCζ(h)) [%] | % activity (ALK(h)) [%] | % activity (SGK3(h)) [%] | % activity (PRK2(h)) [%] | % activity (BRK(h)) [%] | % activity (EphB1(h)) [%] | % activity (PKG1β(h)) [%]
1 | H-YARAAARQARAKALARQLGVAA-OH [MMI-0100] | 82 | 118 | 95 | 72 | 70 | 99 | 71 |  |  |  |  |  |  | 
2 | HRRIKAWLKKIKALARQLGVAA (Mammalian) [MMI-0500] |  |  |  |  |  |  |  | 7 | 12 | -3 | 7 | 41 | 37 | 24
3 | YARAAARQARAKALNRQLGVA (Mammalian) [MMI-0200] |  |  |  |  |  |  |  | 98 | 95 | 58 | 74 | 127 | 95 | 57
